Results as given in US8440430, “Modified dicer polypeptide and methods of use thereof” (The Regents of the University of California).

T1: hWalker human Dicer (K70A) (Homo sapiens, UniProt Q9UPY3 SEQ:1-1922)
T1 chain: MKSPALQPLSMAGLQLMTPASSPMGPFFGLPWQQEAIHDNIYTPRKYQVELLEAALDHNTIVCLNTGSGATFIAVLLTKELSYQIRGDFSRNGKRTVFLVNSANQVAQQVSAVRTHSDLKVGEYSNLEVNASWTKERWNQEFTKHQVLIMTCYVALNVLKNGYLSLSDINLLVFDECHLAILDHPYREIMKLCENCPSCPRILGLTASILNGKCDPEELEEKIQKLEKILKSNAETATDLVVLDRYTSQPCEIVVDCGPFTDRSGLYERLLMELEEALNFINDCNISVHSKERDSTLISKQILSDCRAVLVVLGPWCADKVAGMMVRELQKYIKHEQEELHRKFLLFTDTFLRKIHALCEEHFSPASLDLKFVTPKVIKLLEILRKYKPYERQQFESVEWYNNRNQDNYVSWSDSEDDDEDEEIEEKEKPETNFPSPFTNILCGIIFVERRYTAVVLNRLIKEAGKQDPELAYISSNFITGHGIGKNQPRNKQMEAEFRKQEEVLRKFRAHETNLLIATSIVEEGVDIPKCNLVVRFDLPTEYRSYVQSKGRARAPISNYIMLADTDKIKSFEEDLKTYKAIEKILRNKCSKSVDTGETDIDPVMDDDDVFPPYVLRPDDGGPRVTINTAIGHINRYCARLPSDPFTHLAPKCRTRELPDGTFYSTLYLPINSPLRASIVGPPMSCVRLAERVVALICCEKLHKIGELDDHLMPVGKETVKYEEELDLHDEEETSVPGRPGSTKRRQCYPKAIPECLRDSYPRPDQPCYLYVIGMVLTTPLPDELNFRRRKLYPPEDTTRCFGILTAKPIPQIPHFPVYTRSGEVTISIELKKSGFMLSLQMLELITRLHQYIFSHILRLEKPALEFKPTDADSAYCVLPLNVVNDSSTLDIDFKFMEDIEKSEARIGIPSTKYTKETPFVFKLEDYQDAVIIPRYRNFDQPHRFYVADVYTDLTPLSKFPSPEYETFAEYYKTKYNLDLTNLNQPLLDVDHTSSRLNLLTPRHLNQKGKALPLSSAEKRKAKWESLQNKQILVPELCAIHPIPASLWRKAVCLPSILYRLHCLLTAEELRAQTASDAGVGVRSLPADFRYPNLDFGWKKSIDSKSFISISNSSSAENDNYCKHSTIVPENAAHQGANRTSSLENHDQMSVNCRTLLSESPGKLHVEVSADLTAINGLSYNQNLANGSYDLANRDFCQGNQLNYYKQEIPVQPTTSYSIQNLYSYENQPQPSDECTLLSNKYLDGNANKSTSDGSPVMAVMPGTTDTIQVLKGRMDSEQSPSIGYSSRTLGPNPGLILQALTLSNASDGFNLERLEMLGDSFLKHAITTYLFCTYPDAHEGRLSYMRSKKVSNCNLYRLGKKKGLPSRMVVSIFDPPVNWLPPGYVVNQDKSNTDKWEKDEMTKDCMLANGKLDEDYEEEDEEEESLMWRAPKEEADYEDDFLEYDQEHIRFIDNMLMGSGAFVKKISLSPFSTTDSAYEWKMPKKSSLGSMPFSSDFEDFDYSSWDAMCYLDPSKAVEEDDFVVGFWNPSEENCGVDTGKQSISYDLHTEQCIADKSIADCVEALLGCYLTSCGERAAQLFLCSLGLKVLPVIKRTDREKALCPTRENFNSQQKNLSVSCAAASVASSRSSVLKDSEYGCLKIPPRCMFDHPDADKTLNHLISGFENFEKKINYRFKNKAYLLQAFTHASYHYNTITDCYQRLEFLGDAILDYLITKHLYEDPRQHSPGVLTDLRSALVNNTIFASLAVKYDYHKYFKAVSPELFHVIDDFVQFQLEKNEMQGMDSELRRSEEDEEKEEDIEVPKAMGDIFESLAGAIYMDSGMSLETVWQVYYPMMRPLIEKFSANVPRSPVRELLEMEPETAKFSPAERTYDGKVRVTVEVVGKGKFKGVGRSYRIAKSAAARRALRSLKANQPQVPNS


Legend:
[1] = target: T1, hWalker human Dicer (K70A); test: filter; within three-fold of full-length; 5 mM EDTA; exact Kd only in figure; settings: tags: N-terminal His6 removed by site-specific protease, baculovirus/Sf9
Description: (§1) After dried, the bound (on Protran) or free (on Nytran) RNAs were detected and quantified with Phosphoimager (GE Healthcare). Percentage of bound RNAs was calculated by 100 multiplied by the ratio of radioactivity (volumes) detected on the Protran membrane over the total input volumes (radioactivity). The bound RNAs (%) (Y-axle) were plotted against protein concentrations (X-axle). K_d was determined by global fitting to the equation of kobsd = (kmax ×[Dicer])(K_{1/2} + [Dicer])^-1, here $kobsd$ is the observed rate constant at a particular protein concentration, $kmax$ is the maximal rate constant with saturating protein, and K_{1/2} (or K_d) is the protein concentration that provides half the maximal rate. Curve fitting was conducted with KleidaGraph (Synery Software).
(§2) RNA. […] These values are similar to those measured previously (Provost et al, 2002; Vermeulen et al, 2005). […] The protein lacking both the DExD/H-box domain and the dsRBD (2DD) bound ~3-4 fold more weakly to either substrate relative to full-length Dicer (FIG. 3A-C). It is possible that this severely truncated protein is generally destabilized, or that the DExD/H-box domain plays a small but measurable role in substrate binding.

[2] = target: ΔDUF human Dicer (lacks DUF283) (Homo sapiens, UniProt Q9UPY3 SEQ:1-1922, del630-709); test: as above; settings: tags: N-terminal His6 removed by site-specific protease, baculovirus/Sf9
Description: as §1, §2

[3] = label: 5'-32P on one strand, perfect duplex with 2-nt 3' overhangs on both ends

Row | Binder | Kd relative to full-length Dicer (fold) [1, 3] | Kd relative to full-length Dicer (fold) [2, 3] | Kd relative to full-length Dicer (fold) ([1]; label: 5'-32P, hairpin) | Kd relative to full-length Dicer (fold) ([2]; label: 5'-32P, hairpin)
1 | 37ab duplex RNA (dsRNA) RNA 1: UGAGGUAGUAGGUUGUAUAGUUUGAAAGUUCACGAUU RNA 2: UCGUGAACUUUCAAACUAUACAACCUACUACCUCAUU | ≤ 3 fold of full-length Kd (75 nM) | ≤ 3 fold of full-length Kd (75 nM) |  | 
2 | pre-hlet-7 hairpin RNA (ssRNA) RNA: UGAGGUAGUAGGUUGUAUAGUUUUAGGGUCACACCCACCACUGGGAGAUAACUAUACAAUCUACUGUCUUACC |  |  | ≤ 3 fold of full-length Kd (30 nM) | ≤ 3 fold of full-length Kd (30 nM)
